Test results: patent US20220340685A1 (Novartis, published 2022)
Where a chain is given by its changes, count along the chain named. “And” between values parts separate entries of the source, which are not always exact repeats. Equal entries are not always repeated.

T1: recombinant human ENTPD2 (residues 29-462, Y350A mutant) used in crystallographic studies (human, UniProt Q9Y5L3 29-462, N-linked glycosylation observed at Asn129, Asn294, Asn378 and Asn443)
T1 construct: also called human ENTPD2 Y350A; hENTPD2 Y350A
T1 sequence: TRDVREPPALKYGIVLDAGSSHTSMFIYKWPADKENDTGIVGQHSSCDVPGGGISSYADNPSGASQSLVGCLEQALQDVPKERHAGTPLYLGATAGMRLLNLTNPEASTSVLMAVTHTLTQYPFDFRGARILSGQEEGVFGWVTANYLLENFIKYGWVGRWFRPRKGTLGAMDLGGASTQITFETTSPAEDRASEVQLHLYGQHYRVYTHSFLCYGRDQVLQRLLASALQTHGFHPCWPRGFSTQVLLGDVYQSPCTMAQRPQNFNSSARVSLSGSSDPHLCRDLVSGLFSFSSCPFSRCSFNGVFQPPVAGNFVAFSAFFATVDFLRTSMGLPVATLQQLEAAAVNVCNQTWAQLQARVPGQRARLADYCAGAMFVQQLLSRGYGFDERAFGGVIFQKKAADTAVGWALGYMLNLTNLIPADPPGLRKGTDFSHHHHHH

T2: mouse ENTPD2 on cells (mouse, UniProt O55026 1-495)
T2 sequence: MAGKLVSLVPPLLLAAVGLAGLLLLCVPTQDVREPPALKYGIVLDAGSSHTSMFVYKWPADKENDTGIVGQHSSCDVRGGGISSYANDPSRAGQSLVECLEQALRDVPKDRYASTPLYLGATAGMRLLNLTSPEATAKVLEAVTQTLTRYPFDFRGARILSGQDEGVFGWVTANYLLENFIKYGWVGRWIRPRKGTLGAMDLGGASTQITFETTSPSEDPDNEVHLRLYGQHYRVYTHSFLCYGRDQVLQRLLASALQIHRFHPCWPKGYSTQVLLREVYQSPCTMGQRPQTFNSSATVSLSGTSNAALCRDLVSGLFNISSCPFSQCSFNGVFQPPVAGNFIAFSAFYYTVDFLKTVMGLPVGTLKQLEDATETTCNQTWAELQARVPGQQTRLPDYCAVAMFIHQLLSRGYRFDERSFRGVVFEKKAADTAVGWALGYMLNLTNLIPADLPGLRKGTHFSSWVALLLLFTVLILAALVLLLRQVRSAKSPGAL

B1: anti-human ENTPD2 mAb1 (antibody, human IgG1, kappa)
heavy: not shown
light: DIQLTQSPSSLSASVGDRVTITCSASSSVSYIHWFQQKPGKAPKLLIYSTSNLASGVPSRFSGSGSGTFFTLTISSLQPEDFATYFCHQWSSYPWTFGQGTKVEIKRTVAAPSVFIFPPSDEQLKSGTASVVCLLNNFYPREAKVQWKVDNALQSGNSQESVTEQDSKDSTYSLSSTLTLSKADYEKHKVYACEVTHQGLSSPVTKSFNRGEC
B2: anti-human ENTPD2 FAb22 (Fab, V domains shown)
VH: EVKLEQSGPGLVKPSQSLSLTCSVTGYSITSGYYWNWIRQFPGNKLEWMSYISYDGDNNYNPSLKNRISITRDTSKNQFFLKLSSVTTEDTATYYCAGGYYRYGLSYYYVMDYWGQGTSVTVSA
VL: DIKMTQSPASLAVSLGQRATISCKASQSVDYDGNSYMNWYQQKPGQPPKLLIYAASNLESGIPARFSGSGSGTDFTLNIHPVEEEDAATYYCQQSNEDPPTFGGGTKLELKR
notes: Fab with human CH1 and human kappa constant regions; CDRs of mAb16; also called anti-hENTPD2 FAb22
B3: anti-human ENTPD2 FAb23 (Fab, V domains shown)
VH: EVQLQQFGAELVKPGASVKISCKASGYTFTDYNMDWVKQSHGKSLEWIGDINPKYDISTYNQQFKGKATLTVDKSSSTAYMELRSLTSEDTAVYYCARRGFFLYYGINYYYFDVWGAGTTVTVSS
VL: QIVLTQSPAIMSASLGEEITLTCSASSSVSYIHWYQQKSGTSPTLLIYSTSNLASGVPSRFSGSGSGTFYSLTISSVEAEDAADYYCHQWSSYPWTFGGGTKLEIKR
modifications: residue 1 of the light chain observed and modeled as pyroglutamate in the crystal structure
notes: Fab with human CH1 and human kappa constant regions; variable regions of mAb17; also called anti-hENTPD2 FAb23; anti-human ENTPD2 MAB17 Fab
B4: anti-mouse ENTPD2 mAb13 (antibody, mouse IgG2a, kappa, V domains shown)
VH: QVQLVQSGAELKQPGQSVKISCKASGYTFTHYGMNWVKQAPGQGLKWMGWINTDTGNPTYADDFKGRFVFSLDTSVSTAYLQISNLKNEDTATYYCVRYGTLYSGYGFFFDSWGQGTLVTVSS
VL: DIMMTQSPSSLSVSAGEKATITCKSSQSLFNSNTNKNYLNWYLQKPGQSPKLLFYYASTRHTGVPDRFIGSGSGTDFTLTITSVQDEDLADYYCQQWYSYPWTFGPGTKLEIKR
B5: anti-mouse ENTPD2 mAb14 (antibody, mouse IgG2a, kappa, V domains shown)
VH: B4 VH with T30W
VL: B4 VL
B6: anti-mouse ENTPD2 mAb15 (antibody, mouse IgG2a, kappa, V domains shown)
VH: B4 VH with T30H
VL: B4 VL

How the values were obtained:
[1] = target: human FcγRIIIa, V158 (high affinity variant) (human, UniProt P08637 17-254); assay: cell-based or functional assay
[2] = target: T1, recombinant human ENTPD2 (residues …); assay: X-ray co-crystal structure
mouse ENTPD2 on cells = target: T2, mouse ENTPD2 on cells; assay: cell-based or functional assay

Sequence of human FcγRIIIa, V158 (high affinity variant) (P08637 other isoform, or with tags, fused parts or gaps mutant limits assumed): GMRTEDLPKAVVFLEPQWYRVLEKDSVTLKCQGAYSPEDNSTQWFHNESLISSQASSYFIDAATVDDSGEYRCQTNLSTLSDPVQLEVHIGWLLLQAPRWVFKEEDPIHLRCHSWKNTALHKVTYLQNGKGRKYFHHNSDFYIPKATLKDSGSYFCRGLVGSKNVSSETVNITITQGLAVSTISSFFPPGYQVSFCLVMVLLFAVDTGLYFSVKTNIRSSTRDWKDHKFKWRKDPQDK

| Binder | binding result [2] | ENTPD2 Functional Assay IC50 (mouse ENTPD2 NIH/3T3 cell-based assay) (mouse ENTPD2 on cells) [nM] | further results |
| --- | --- | --- | --- |
| B1 | – | – | FcγRIIIa signaling, Jurkat NFAT-luciferase reporter cells with RKO target cells, EC50 [1]: 17.3 nM and 2.55 µg/mL |
| B2 | binds | – | – |
| B3 | binds | – | – |
| B4 | – | 2.8 | – |
| B5 | – | 4.6 | – |
| B6 | – | 5.9 | – |
